Assay results: the supplement of paper PMC11246515
± gives the standard deviation of the averaged measurements.

Assay: total protein half-life in vivo (active degradation + dilution); higher = more stable protein
[1] = E. coli NCM3722 delta-clpP, growth: N-lim chemostat, doubling time 6 h
[2] = E. coli NCM3722 delta-hslV, growth: N-lim chemostat, doubling time 6 h
[3] = E. coli NCM3722 delta-lon, growth: N-lim chemostat, doubling time 6 h
[4] = E. coli NCM3722 delta-smpB, growth: N-lim chemostat, doubling time 6 h
[5] = wild type E. coli NCM3722, growth: C-lim chemostat, doubling time 3 h
[6] = wild type E. coli NCM3722, growth: C-lim chemostat, doubling time 6 h
[7] = wild type E. coli NCM3722, growth: C-lim chemostat, doubling time 12 h
[8] = wild type E. coli NCM3722, growth: N-lim chemostat, doubling time 6 h
[9] = wild type E. coli NCM3722, growth: N-lim chemostat, doubling time 12 h
[10] = wild type E. coli NCM3722, growth: P-lim chemostat, doubling time 6 h
[11] = wild type E. coli NCM3722, growth: P-lim chemostat, doubling time 12 h
[12] = E. coli NCM3722 delta-clpP delta-lon delta-hslV, growth: N-lim chemostat, doubling time 6 h

Sequence	total protein half-life in vivo [1] [h]	total protein half-life in vivo [2] [h]	total protein half-life in vivo [3] [h]	total protein half-life in vivo [4] [h]	total protein half-life in vivo [5] [h]	total protein half-life in vivo [6] [h]	total protein half-life in vivo [7] [h]	total protein half-life in vivo [8] [h]	total protein half-life in vivo [9] [h]	total protein half-life in vivo [10] [h]	total protein half-life in vivo [11] [h]	total protein half-life in vivo [12] [h]
MLGKYKAVLALLLLIILVPLTLLMTLGLWVPTLAGIWLPLGTRIALDESPRITRKGLIIPDLRYLVGDCQLAHITNASLSHPSRWLLNVGTVELDSACLAKLPQTEQSPAAPKTLAQWQAMLPNTWINIDKLIFSPWQEWQGKLSLALTSDIQQLRYQGEKVKFQGQLKGQQLTVSELDVVAFENQPPVKLVGEFAMPLVPDGLPVSGHATATLNLPQEPSLVDAELDWQENSGQLIVLARDNGDPLLDLPWQITRQQLTVSDGRWSWPYAGFPLSGRLGVKVDNWQAGLENALVSGRLSVLTQGQAGKGNAVLNFGPGKLSMDNSQLPLQLTGEAKQADLILYARLPAQLSGSLSDPTLTFEPGALLRSKGRVIDSLDIDEIRWPLAGVKVTQRGVDGRLQAILQAHENELGDFVLHMDGLANDFLPDAGRWQWRYWGKGSFTPMNATWDVAGKGEWHDSTITLTDLSTGFDQLQYGTMTVEKPRLILDKPIVWVRDAQHPSFSGALSLDAGQTLFTGGSVLPPSTLKFSVDGRDPTYFLFKGDLHAGEIGPVRVNGRWDGIRLRGNAWWPKQSLTVFQPLVPPDWKMNLRDGELYAQVAFSAAPEQGFRAGGHGVLKGGSAWMPDNQVNGVDFVLPFRFADGAWHLGTRGPVTLRIAEVINLVTAKNITADLQGRYPWTEEEPLLLTDVSVDVLGGNVLMKQLRMPQHDPALLRLNNLSSSELVSAVNPKQFAMSGAFSGALPLWLNNEKWIVKDGWLANSGPMTLRLDKDTADAVVKDNMTAGSAINWLRYMEISRSSTKINLDNLGLLTMQANITGTSRVDGKSGTVNLNYHHEENIFTLWRSLRFGDNLQAWLEQNARLPGNDCPQGKECEEKQ	5.985 ± 0.043	6.03 ± 0.13	6.22 ± 0.2	5.57 ± 0.078	3.236 ± 0.032	6.2 ± 0.12	10.8 ± 0.14	6 ± 0.47	12.3 ± 0.45	6.06 ± 0.32	12.17 ± 0.039	
MLGLKQVHHIAIIATDYAVSKAFYCDILGFTLQSEVYREARDSWKGDLALNGQYVIELFSFPFPPERPSRPEACGLRHLAFSVDDIDAAVAHLESHNVKCETIRVDPYTQKRFTFFNDPDGLPLELYEQ	4.26 ± 0.34		4.65 ± 0.89	3.22	2.51	5.13	11.4	3.54	4.57 ± 0.75	6.05 ± 1.1	11.7 ± 0.74	3.94 ± 0.96
MLGWVITCHDDRAQEILDALEKKHGALLQCRAVNFWRGLSSNMLSRMMCDALHEADSGEGVIFLTDIAGAPPYRVASLLSHKHSRCEVISGVTLPLIEQMMACRETMTSSEFRERIVELGAPEVSSLWHQQQKNPPFVLKHNLYEY						0.895	0.859					4.15
MLHKKTLLFAALSAALWGGATQAADAAVVASLKPVGFIASAIADGVTETEVLLPDGASEHDYSLRPSDVKRLQNADLVVWVGPEMEAFMQKPVSKLPGAKQVTIAQLEDVKPLLMKSIHGDDDDHDHAEKSDEDHHHGDFNMHLWLSPEIARATAVAIHGKLVELMPQSRAKLDANLKDFEAQLASTETQVGNELAPLKGKGYFVFHDAYGYFEKQFGLTPLGHFTVNPEIQPGAQRLHEIRTQLVEQKATCVFAEPQFRPAVVESVARGTSVRMGTLDPLGTNIKLGKTSYSEFLSQLANQYASCLKGD	4.85 ± 0.4	5.99 ± 0.29	7.17 ± 0.96		2.86 ± 0.12	5.54 ± 0.29	9.55 ± 1.5		13.6 ± 1.4	5.24 ± 0.2	11.4 ± 2.3	3.68 ± 0.41
MLHLFAGLDLHTGLLLLLALAFVLFYEAINGFHDTANAVATVIYTRAMRSQLAVVMAAVFNFLGVLLGGLSVAYAIVHMLPTDLLLNMGSSHGLAMVFSMLLAAIIWNLGTWYFGLPASSSHTLIGAIIGIGLTNALMTGTSVVDALNIPKVLSIFGSLIVSPIVGLVFAGGLIFLLRRYWSGTKKRARIHLTPAEREKKDGKKKPPFWTRIALILSAIGVAFSHGANDGQKGIGLVMLVLIGVAPAGFVVNMNATGYEITRTRDAINNVEAYFEQHPALLKQATGADQLVPAPEAGATQPAEFHCHPSNTINALNRLKGMLTTDVESYDKLSLDQRSQMRRIMLCVSDTIDKVVKMPGVSADDQRLLKKLKSDMLSTIEYAPVWIIMAVALALGIGTMIGWRRVATTIGEKIGKKGMTYAQGMSAQMTAAVSIGLASYTGMPVSTTHVLSSSVAGTMVVDGGGLQRKTVTSILMAWVFTLPAAVLLSGGLYWLSLQFL [P0AFJ7]	6.5 ± 1.2			6.14 ± 0.78	3.761 ± 0.013	6.37 ± 1.4	14.4 ± 0.95	6.13 ± 0.24		6.54 ± 0.4	12.6 ± 1	6.99 ± 0.45
MLHTLHRSPWLTDFAALLRLLSEGDELLLLQDGVTAAVDGNRYLESLRNAPIKVYALNEDLIARGLTGQISNDIILIDYTDFVRLTVKHPSQMAW	5.7	4.53 ± 0.13	6.44 ± 1.6	4.89 ± 0.16	3.012 ± 0.0044	5.1	13.4 ± 3	4.39 ± 0.46	8.26	5.89	11.3 ± 0.18	5.27 ± 0.29
